In patent publication US20220195054A1 (BERGEN TEKNOLOGIOVERF RING, published 2022):
Positions count from the first letter of the chain named. Values joined by “and” are separate entries in the source; they are usually repeats but may differ in a detail not shown here. Identical values can stand only once.

How the values were obtained:
[1] = target: T1, human Axl receptor on cells (MDA-MB-231, HeLa, LX2, Axl-positive cells) (human, UniProt P30530 26-894); assay: cell-based or functional assay
[2] = target: T1, human Axl receptor on cells …; assay: cell-based or functional assay; remark: listed apart in the source
[3] = target: T2, recombinant human Axl-Fc chimera (rhAxl-Fc; R&D Systems, Cat. no. 154-AL) (human, UniProt P30530 26-451); assay: SPR (Biacore), rhAxl immobilised on the sensor chip
T2 construct: Bought construct; also called rhAxi-Fc; Hu-Axl-Fc; Fc part of the bought chimera not given

[4] = target: T2, recombinant human Axl-Fc chimera …; assay: SPR (Biacore), rhAxl immobilised on the sensor chip, antibody as analyte
[5] = target: T1, human Axl receptor on cells …; assay: flow cytometry on MDA-MB-231 cells, APC-conjugated anti-human IgG F(ab')2 detection
[6] = target: T1, human Axl receptor on cells …; assay: flow cytometry titration on MDA-MB-231 cells, Kd of the fitted curve, the axis of the fitted curves is Conc. (nM) [table under the graph]
[7] = target: recombinant human Axl-Fc chimera (rhAxl-Fc; R&D Systems, Cat. no. 154-AL) (human) (UniProt P30530); assay: SPR two-injection competition on immobilised Axl-Fc; first injection
[8] = target: recombinant human Axl-Fc chimera (rhAxl-Fc; R&D Systems, Cat. no. 154-AL) (human) (UniProt P30530); assay: SPR two-injection competition on immobilised Axl-Fc; second injection, competitor bound first: Gas6
[9] = target: recombinant human Axl-Fc chimera (rhAxl-Fc; R&D Systems, Cat. no. 154-AL) (human) (UniProt P30530); assay: SPR two-injection competition on immobilised Axl-Fc; second injection, competitor bound first: H2L1
[10] = target: recombinant human Axl-Fc chimera (rhAxl-Fc; R&D Systems, Cat. no. 154-AL) (human) (UniProt P30530); assay: SPR two-injection competition on immobilised Axl-Fc; response expected for the second sample (first: Gas6)
[11] = target: recombinant human Axl-Fc chimera (rhAxl-Fc; R&D Systems, Cat. no. 154-AL) (human) (UniProt P30530); assay: SPR two-injection competition on immobilised Axl-Fc; response expected for the second sample (first: H2L1)
[12] = target: recombinant human Axl-Fc chimera (rhAxl-Fc; R&D Systems, Cat. no. 154-AL) (human) (UniProt P30530); assay: SPR two-injection competition on immobilised Axl-Fc; second injection, competitor bound first: 10G5
[13] = target: recombinant human Axl-Fc chimera (rhAxl-Fc; R&D Systems, Cat. no. 154-AL) (human) (UniProt P30530); assay: SPR two-injection competition on immobilised Axl-Fc; second injection, competitor bound first: YW327.6S2
[14] = target: recombinant human Axl-Fc chimera (rhAxl-Fc; R&D Systems, Cat. no. 154-AL) (human) (UniProt P30530); assay: SPR two-injection competition on immobilised Axl-Fc; response expected for the second sample (first: 10G5)
[15] = target: recombinant human Axl-Fc chimera (rhAxl-Fc; R&D Systems, Cat. no. 154-AL) (human) (UniProt P30530); assay: SPR two-injection competition on immobilised Axl-Fc; response expected for the second sample (first: YW327.6S2)
[16] = target: T2, recombinant human Axl-Fc chimera …; assay: SPR (Biacore 3000, 25 C), rhAxl-Fc immobilised; ln2/koff
[17] = target: T2, recombinant human Axl-Fc chimera …; assay: SPR (Biacore), rhAxl immobilised; same values as Table 1
[18] = target: T2, recombinant human Axl-Fc chimera …; assay: SPR (Biacore 3000, 25 C), rhAxl-Fc immobilised (190 RU), antibody as analyte, koff/kon
[19] = target: T2, recombinant human Axl-Fc chimera …; assay: SPR (Biacore 3000, 25 C), rhAxl-Fc immobilised (190 RU), antibody as analyte, 1:1 Langmuir
[20] = target: T3, recombinant cyno-Axl-Fc (extracellular domain of Axl from Macaca fascicularis fused to human Fc) (cynomolgus monkey (Macaca fascicularis), UniProt P30530 26-451 (human entry)); assay: Biacore 3000 SPR, cyno-Axl-Fc on a CM5 chip, antibody injected at 10 µg/mL for 3 min, 5 min dissociation [upper panel 10G5]
T3 construct: Made by transient expression in CHO cells; also called Axl from cynomolgus monkey; not shown: human Fc
T3 chain: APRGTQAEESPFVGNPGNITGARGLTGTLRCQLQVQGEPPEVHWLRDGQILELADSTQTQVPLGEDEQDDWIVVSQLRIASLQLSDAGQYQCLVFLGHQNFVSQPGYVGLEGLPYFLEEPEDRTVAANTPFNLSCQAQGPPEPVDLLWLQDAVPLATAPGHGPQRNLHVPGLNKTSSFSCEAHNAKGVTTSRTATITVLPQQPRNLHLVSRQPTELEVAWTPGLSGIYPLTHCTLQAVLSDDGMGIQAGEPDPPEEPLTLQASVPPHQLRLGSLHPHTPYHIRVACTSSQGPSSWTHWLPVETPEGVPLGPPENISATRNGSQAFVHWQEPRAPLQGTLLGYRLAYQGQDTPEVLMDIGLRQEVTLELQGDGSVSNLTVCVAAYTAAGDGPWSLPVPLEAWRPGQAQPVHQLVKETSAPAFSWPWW

[21] = target: T4, recombinant human Mer-Fc chimera (rhMer-Fc; R&D Systems, Cat no. 891-MR) (human, UniProt Q12866 21-505); assay: Biacore 3000 SPR, rhMer-Fc on a CM5 chip, antibody injected for 3 min; concentration from Example 2, not printed on the sheet
T4 construct: Bought construct; Fc part of the bought chimera not given
T4 sequence: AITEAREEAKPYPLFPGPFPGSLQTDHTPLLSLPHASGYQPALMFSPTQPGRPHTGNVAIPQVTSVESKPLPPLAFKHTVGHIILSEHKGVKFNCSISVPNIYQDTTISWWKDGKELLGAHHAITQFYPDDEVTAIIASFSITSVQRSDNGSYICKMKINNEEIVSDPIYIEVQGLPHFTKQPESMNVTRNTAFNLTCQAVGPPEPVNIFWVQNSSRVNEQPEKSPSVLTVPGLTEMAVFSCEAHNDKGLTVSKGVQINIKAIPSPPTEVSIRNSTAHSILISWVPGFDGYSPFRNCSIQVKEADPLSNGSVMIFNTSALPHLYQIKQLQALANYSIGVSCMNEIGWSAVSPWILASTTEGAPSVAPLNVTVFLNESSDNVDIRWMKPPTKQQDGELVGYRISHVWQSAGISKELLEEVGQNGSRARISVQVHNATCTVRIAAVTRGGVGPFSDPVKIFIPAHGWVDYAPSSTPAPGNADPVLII

[22] = target: T5, recombinant human Tyro3/Dtk-Fc chimera (rhTyro3/Dtk-Fc; R&D Systems, Cat no. 859-DK) (human, UniProt Q06418 41-429); assay: Biacore 3000 SPR, rhTyro3/Dtk-Fc on a CM5 chip, antibody injected for 3 min; concentration from Example 2, not printed on the sheet
T5 construct: Bought construct; Fc part of the bought chimera not given
T5 sequence: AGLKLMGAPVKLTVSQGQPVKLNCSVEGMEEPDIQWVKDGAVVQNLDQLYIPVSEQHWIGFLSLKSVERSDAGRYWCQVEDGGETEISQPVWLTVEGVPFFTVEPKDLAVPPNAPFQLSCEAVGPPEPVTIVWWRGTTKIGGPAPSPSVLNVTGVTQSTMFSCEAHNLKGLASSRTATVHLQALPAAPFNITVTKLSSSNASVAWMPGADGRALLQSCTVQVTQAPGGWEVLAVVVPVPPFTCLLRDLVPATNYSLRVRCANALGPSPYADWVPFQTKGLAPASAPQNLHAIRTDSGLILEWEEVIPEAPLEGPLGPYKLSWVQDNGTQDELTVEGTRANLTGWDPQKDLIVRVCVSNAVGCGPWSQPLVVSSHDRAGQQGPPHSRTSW

B1: humanised 10G5 antibody H1L1 (antibody, human IgG1, kappa, V domains shown)
VH: EVQLVQSGAGLVQPGGSVRLSCAASGYSFTDFYINWVRQAPGKGLEWIARIFPGGDNTYYNEKFKGRFTLSADTSSSTAYLQLNSLRAEDTAVYYCARRGLYYAMDYWGQGTLVTVSS
VL: DIQMTQSPSSLSASVGDRVTITCRSSQSLVHSNGIPYLHWYQQKPGKAPKLLIYRVSNRFSGVPSRFSGSGSGTDFTLTISSLQPEDFATYYCSQGTHVPPTFGQGTKVEIKR
notes: H1L1 is read as GH1 heavy chain + GL1 light chain; also called hu10G5 H1L1
EC50 (pM), killing of MDA-MB-231 cells by antibody coupled to Saporin (FabFc-ZAP), XTT/PMS viability after 72 hrs [1]: 3.44 pM | EC50 (pM), tumour cell killing by antibody-Saporin conjugates, as in Example 20 [2]: 17.1 pM | Half-life (t1/2) [3]: 71.7 min | Kd [4]: 105 pM | koff [4]: 0.000161 s⁻¹ | kon [4]: 1.54e+06 M⁻¹ s⁻¹ | EC50 (read off the curve) [5]: ~100 pM | Kd [6]: 120 pM

B2: humanised 10G5 antibody H2L1 (antibody, human IgG1, kappa, V domains shown)
VH: B1 VH with Q6E, A9G, V18L, I48V, S76K, L83M
VL: B1 VL
notes: H2L1 is read as GH2 heavy chain + GL1 light chain; also called hu10G5 H2L1; Hu10G5 (H2L1)
EC50 (pM), killing of MDA-MB-231 cells by antibody coupled to Saporin (FabFc-ZAP), XTT/PMS viability after 72 hrs [1]: 2.68 pM | EC50 (pM), tumour cell killing by antibody-Saporin conjugates, as in Example 20 [2]: 2.66 pM | Half-life (t1/2) [3]: 81.4 min | 1st Response [7]: 323 | Kd [4]: 68.6 pM | koff [4]: 0.000142 s⁻¹ | kon [4]: 2.07e+06 M⁻¹ s⁻¹ | 2nd Response [8]: 301 | 2nd Response [9]: 8.9 | EC50 (read off the curve) [5]: ~200 pM | Expected response if independent [10]: 318 | Expected response if independent [11]: 323 | Kd [6]: 192 pM

B3: chimeric 1H12 anti-Axl antibody (antibody, from another filing, V domains shown)
VH: EVQLVESGGDLVKPGGSLKLSCAASGFTFSSYGMSWVRQTPDKRLEWVATISSGGSYTYYPDSVKGRFTISRDNAKNTLYLQMSSLKSEDTAMYYCARHPIYYTYDDTMDYWGQGTSVTVSS
VL: ENVLTQSPAIMAASPGEKVTMTCSASSSVSSGNFHWYQQKPGTSPKLWIYRTSNLASGVPARFSGSGSGTSYSLTISSMEAEDAATYYCQQWSGYPWTFGGGTKLEIK
1st Response [7]: 400 and 220 | 2nd Response [12]: 180 | 2nd Response [13]: 400 | Expected response if independent [14]: 220 | Expected response if independent [15]: 400

B4: mouse monoclonal antibody 10G5 (antibody, V domains shown)
VH: QVQLQQSGAELVRPGASVKLSCKASGYSFTDFYINWVRQRPGQGLEWIARIFPGGDNTYYNEKFKGKATLTAEESSSTAYIQLSSLTSEDSAVYFCARRGLYYAMDYWGQGISVTVSS
VL: DVLMTQTPLSLPVSLGDQASISCRSSQSLVHSNGIPYLHWYLQKPGQSPKLLIYRVSNRFSGVPDRFSGSGSGTDFTLKISRVEAEDLGVYFCSQGTHVPPTFGGGTKLEIK
notes: Whole mouse IgG purified from hybridoma supernatant; also called murine 10G5; MAb 10G5
Half-life (t1/2) [16]: 26.3 min | Half-life (t1/2) [17]: 26.3 min | Kd [17]: 530 pM | koff [17]: 0.000439 s⁻¹ | kon [17]: 829000 M⁻¹ s⁻¹ | Kd [18]: 530 pM | koff [19]: 0.000439 s⁻¹ | kon [19]: 829000 M⁻¹ s⁻¹ | binding result [20]: binds | binding result [21]: no binding (tested: 10 µg/mL) | binding result [22]: no binding (tested: 10 µg/mL)
